Numbering of substitutions follows the chain as printed. Numbers in names are those of the source. Read-outs that look alike come from different tables or passages of the source.
Key:
SEC [1] = biological target: the molecule itself; test: SEC
SEC [2] = biological target: the molecule itself; test: SEC; remark: listed apart in the source

B1: HtrA3 S305A (enzyme)
chain: LHQLSSPRYKFNFIADVVEKIAPAVVHIELFLRHPLFGRNVPLSSGSGFIMSEAGLIITNAHVVSSNSAAPGRQQLKVQLQNGDSYEATIKDIDKKSDIATIKIHPKKKLPVLLLGHSADLRPGEFVVAIGSPFALQNTVTTGIVSTAQREGRELGLRDSDMDYIQTDAIINYGNAGGPLVNLDGEVIGINTLKVTAGISFAIPSDRITRFLTEFQDKQIKDWKKRFIGIRMRTITPSLVDELKASNPDFPEVSSGIYVQEVAPNSPSQRGGIQDGDIIVKVNGRPLVDSSELQEAVLTESPLLLEVRRGNDDLLFSIAPEVVM
- stoichiometry N (SEC [1]): 3

B2: HtrA3 F142A (enzyme)
chain: B1 chain with F13A, A176S
- stoichiometry N (SEC [2]): 3

— paper PMC6993860 (Biochemical Journal, 2020)
